What was measured:
[1] = molecular target: T1, CD73 protein on cancer cells (Homo sapiens, UniProt P21589); assay: Flow cytometry (FACS) with 22E6 and anti-rat-IgG fluorophore-labeled secondary mAb on human cancer cell lines; assay type: binding; conditions: approx. 30 tested human cancer cell lines, e.g. U138 MG, GBM20, MDA-MB231, T47D
T1 construct: present on the surface of human cancer cells of a total of approx. 30 tested cell lines; endogenous in cells; host or cells: about 30 human cancer cell lines, e.g. U138 MG, GBM20, MDA-MB231, T47D
T1 sequence (P21589 27-549): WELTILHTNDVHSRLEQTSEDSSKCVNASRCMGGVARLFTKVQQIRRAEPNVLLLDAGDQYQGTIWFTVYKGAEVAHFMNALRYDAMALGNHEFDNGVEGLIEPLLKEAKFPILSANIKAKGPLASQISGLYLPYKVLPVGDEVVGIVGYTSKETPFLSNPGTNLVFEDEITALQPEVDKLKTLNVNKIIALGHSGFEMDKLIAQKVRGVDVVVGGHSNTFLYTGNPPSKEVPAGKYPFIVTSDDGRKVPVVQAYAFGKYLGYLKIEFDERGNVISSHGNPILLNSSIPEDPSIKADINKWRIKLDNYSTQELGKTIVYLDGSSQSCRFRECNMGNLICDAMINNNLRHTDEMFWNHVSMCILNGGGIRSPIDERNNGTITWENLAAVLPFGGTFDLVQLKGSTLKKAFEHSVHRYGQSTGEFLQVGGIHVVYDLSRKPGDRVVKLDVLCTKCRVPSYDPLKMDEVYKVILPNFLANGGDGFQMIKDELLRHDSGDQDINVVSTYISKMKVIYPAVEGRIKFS
Procedure: (§1) FIG. 3: mAb 22E6 recognizes CD73 on cancer cells. […] Shown are 4 representative cell lines of a total of approx. 30 tested cell lines. U138 MG and GBM20 are glioblastoma cell lines, MDA-MB231 and T47D are human breast cancer cell lines. (B) Immunoblot with the same cell line, using a commercial CD73 mAb. […] Input=U138 lysate.
(§2) In this example, mAb 22E6 binding affinity was characterized (FIG. 3). […] Using a special flow cytometry technique, a fluorescence-activated cell sorting (FACS) with 22E6 and an anti-rat-IgG-specific, fluorophore-labeled secondary mAb, it was shown that the protein recognized by the 22E6 mAb of the invention is present on the surface of human cancer cells of a total of approx. 30 tested cell lines. U138 MG and GBM20 are glioblastoma cell lines, MDA-MB231 and T47D are human breast cancer cell lines. In order to compare the specificity of mAb 22E6 with the specificity of a commercial CD73 mAb an immunoblot with the same cell lines (U138 MG, GBM20, MDA-MB231 and T47D) was performed using the commercial CD73 mAb as shown in FIG. 3B.

CD73 protein = molecular target: T2, CD73 protein (Homo sapiens, UniProt P21589); assay: Immunoprecipitation of CD73 from U138 glioblastoma cell lysates followed by immunoblot with commercial CD73 mAb; assay type: binding; conditions: U138 glioblastoma lysate, versus isotype mAb
T2 construct: immunoprecipitation of the CD73 protein from lysates of U138 glioblastoma cells; endogenous in cells; host or cells: U138 glioblastoma cells (lysate)
T2 sequence (P21589 27-549): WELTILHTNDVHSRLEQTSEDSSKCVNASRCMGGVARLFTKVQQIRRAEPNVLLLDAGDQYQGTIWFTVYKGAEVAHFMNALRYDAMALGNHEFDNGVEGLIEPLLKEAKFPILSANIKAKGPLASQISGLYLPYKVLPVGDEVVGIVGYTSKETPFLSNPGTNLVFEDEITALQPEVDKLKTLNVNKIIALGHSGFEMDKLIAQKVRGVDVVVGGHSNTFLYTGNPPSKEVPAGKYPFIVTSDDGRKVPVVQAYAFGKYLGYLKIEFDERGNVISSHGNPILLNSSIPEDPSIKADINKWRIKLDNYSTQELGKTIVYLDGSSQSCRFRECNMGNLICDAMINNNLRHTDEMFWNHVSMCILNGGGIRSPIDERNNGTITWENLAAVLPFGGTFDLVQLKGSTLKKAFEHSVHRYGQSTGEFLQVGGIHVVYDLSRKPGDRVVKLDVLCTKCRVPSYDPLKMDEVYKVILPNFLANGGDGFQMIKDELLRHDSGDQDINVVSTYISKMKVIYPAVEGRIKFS
Procedure: as §1, §2

[2] = tested on: CD73-positive human A375 melanoma cells; assay: AMP to adenosine conversion by CD73-positive A375 melanoma cells; assay type: cell-based; conditions: A375 melanoma cells incubated with AMP for 60 min
Procedure: CD73-positive human A375 melanoma cells were incubate with AMP for 60 min and the concentration of AMP (left) and ADO (right) in the supernatant were measured. APCP is a small-molecule specific CD73 inhibitor.
(§3) Adenosine 5′-(α,β-methylene)diphosphate (APCP) is a small-molecule specific CD73 inhibitor.

human CLL cells = assay: ADO generation by human CLL cells; assay type: cell-based
Source text: APCP is a CD73 small molecule inhibitor.
as §3

[3] = tested on: peripheral blood mononuclear cells; assay: TNFα release in mixed lymphocyte reactions (ELISA); assay type: cell-based; conditions: 5×10^5 PBMCs each from two donors, 22E6 50 μg/ml, 37°, 24 h, versus GSF-mAb
Procedure: 5×10^5 peripheral blood mononuclear cells each from two out of three different donors (A, B, C) were co-incubated in standard cell culture medium at 37° for 24 h with 22E6 (50 μg/ml) or a GSF-mAb (50 μg/ml) and the amount of TNFα was measured with a commercial ELISA assay.
Accordingly, 5×10^5 peripheral blood mononuclear cells (PBMCs) each from two out of three different donors (A, B, C) were co-incubated in standard cell culture medium at 37° for 24 h with 22E6 (50 μg/ml) or a GSF-mAb (50 μg/ml) and the amount of TNFα was measured with a commercial ELISA assay.

[4] = molecular target: T3, CD73 on cancer derived EVs (Homo sapiens, UniProt P21589); assay: ADO production by EVs from malignant ascites (inorganic phosphate, malachite green assay); assay type: biochemical; conditions: phosphate-free buffer, 1 mM AMP, 60 min, versus isotype mAb
T3 construct: from tissue; host or cells: extracellular vesicles from malignant ascites (ovarian cancer patient)
T3 sequence (P21589 27-549): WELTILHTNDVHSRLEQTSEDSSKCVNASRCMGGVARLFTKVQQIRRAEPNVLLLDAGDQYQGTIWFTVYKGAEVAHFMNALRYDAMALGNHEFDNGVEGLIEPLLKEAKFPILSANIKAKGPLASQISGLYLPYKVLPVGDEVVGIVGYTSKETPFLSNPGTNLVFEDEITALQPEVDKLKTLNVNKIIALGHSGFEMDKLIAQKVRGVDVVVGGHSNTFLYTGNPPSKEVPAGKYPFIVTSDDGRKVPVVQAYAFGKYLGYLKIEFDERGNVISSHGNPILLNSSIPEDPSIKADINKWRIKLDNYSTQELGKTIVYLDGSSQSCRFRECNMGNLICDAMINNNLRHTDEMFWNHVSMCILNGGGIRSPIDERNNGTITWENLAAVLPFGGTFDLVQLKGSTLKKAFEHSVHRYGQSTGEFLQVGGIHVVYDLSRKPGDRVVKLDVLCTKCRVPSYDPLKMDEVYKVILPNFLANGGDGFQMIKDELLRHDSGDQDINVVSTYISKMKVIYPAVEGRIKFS
Procedure: FIG. 9: 22E6 blocks ADO production by EVs from malignant ascites. EVs were incubated in phosphate-free buffer in the presence of 1 mM AMP with APCP, 22E6 or an isotype mAb for 60 min and the concentration of inorganic phosphate (Pi; produced alongside the dephosphorylation of AMP) was quantified with a malachite green assay.
Accordingly, EVs were incubated in phosphate-free buffer in the presence of 1 mM AMP with APCP, 22E6 or an isotype mAb for 60 min and the concentration of inorganic phosphate (Pi; produced alongside the dephosphorylation of AMP) was quantified with a standard malachite green assay. Based on the above it was concluded that 22E6 inhibits CD73 on cancer derived EVs.

soluble CD73 protein = molecular target: T4, soluble CD73 protein (Homo sapiens, UniProt P21589); assay: Inhibitory preference: enzyme activity of soluble CD73; assay type: biochemical; conditions: FIG. 10
T4 sequence (P21589 27-549 limits assumed): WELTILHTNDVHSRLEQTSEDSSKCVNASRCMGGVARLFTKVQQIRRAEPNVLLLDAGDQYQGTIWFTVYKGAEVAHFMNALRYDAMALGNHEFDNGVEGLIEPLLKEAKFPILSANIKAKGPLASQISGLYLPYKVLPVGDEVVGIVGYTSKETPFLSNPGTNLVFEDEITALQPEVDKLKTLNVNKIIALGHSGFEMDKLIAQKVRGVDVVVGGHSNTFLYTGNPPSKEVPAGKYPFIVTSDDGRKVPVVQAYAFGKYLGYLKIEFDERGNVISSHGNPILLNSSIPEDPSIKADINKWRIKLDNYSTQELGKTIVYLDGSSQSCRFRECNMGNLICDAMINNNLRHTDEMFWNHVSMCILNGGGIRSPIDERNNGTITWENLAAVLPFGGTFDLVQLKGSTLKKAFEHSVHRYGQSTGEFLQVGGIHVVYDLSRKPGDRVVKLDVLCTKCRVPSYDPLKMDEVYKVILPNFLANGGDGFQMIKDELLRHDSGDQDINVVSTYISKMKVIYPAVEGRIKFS

[5] = molecular target: T5, membrane-bound form of CD73 protein (Homo sapiens, UniProt P21589); assay: Inhibitory preference: enzymatic activity of membrane-bound CD73; assay type: biochemical; conditions: FIG. 10
T5 sequence (P21589 27-549): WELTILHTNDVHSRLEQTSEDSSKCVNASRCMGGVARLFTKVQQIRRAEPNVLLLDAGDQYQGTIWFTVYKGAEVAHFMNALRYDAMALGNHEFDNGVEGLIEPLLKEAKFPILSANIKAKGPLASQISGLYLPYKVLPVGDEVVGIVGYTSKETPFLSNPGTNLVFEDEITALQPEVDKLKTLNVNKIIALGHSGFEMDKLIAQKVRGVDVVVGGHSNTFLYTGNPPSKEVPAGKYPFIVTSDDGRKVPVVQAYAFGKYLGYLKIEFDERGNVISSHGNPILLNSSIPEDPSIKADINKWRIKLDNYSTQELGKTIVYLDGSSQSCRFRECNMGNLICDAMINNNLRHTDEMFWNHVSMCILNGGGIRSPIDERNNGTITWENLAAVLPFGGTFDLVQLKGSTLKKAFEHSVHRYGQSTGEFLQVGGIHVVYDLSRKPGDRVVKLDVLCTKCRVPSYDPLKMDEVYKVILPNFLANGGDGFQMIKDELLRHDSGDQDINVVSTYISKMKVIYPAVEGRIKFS

[6] = tested on: Peripheral blood mononuclear cells (PBMCs); assay: IFN-γ release by PBMCs (ELISA); assay type: cell-based; conditions: PBMCs from two donors incubated separately; 22E6 0.5 μg/ml and 5 μg/ml; 24 h; versus isotyp antibody
Procedure: FIG. 15: Massive release of interferon-gamma (IFN-γ) being induced by mAB 22E6 in comparison to an isotyp antibody. IFN-γ being a marker for the activation of cytotoxic T-cells. Peripheral blood mononuclear cells (PBMCs) from two different donors were incubated separately as indicated at 37° C. for 24 h. Interferon-gamma (IFN-γ) in the supernatant was then quantified by a standard ELISA assay.
Peripheral blood mononuclear cells (PBMCs) from two different donors were incubated separately in standard cell culture medium at 37^0 for 24 h with 22E6 (0.5 μg/ml and 5 μg/ml), APCP (1 μM and 5 μM), isotyp antibody (5 μg/ml), aPD-1 (5 μg/ml) and control (5 μg/ml). The amount of interferon-gamma (IFN-γ) in the supernatant was then measured with a commercial ELISA assay.

recognition of CD73 on the surface of cancer cells [1]: recognizes CD73 protein on cancer cells
specificity for CD73 by immunoprecipitation (CD73 protein): demonstrated the specificity of 22E6
B1: 22E6: rat monoclonal anti-CD73 antibody from immunization with GBM20 glioblastoma EVs; VH SEQ ID NO: 9, VL SEQ ID NO: 13 (antibody, listed as Rattus norvegicus, V domains shown)
VH: EVQLVESGGGLVQPGRSMKLSCAASGFTFSFYYMAWVRQAPTKGLEWVASISTGGGNTYYRDSVKGRFTISRDDAKSTLYLQMDSLRSEETATYYCARHGGDYYGYRGGYFDYWDQGVMVTVSS
VL: DIQMTQTPSSMPASLGERVTISCRASQGINNYLNWYQQKPDGTIKPLIYYTSNLQSGVPSRFSGSGSGTDYSLTISSLEPEDFAMYYCQQYDNSPYTFGAGTKLELK
modifications: (1)..(124) VH region; SITE (26)..(32) VH complementary determining region 1 (VH CDR1); SITE (52)..(57) VH complementary determining region 2 (H-CDR2); SITE (99)..(113) VH complementary determining region 3 (H-CDR3); (1)..(107) VL region; SITE (24)..(34) VL complementary determining region 1 (L-CDR1); SITE (50)..(56) VL complementary determining region 2 (L-CDR2); SITE (89)..(97) VL complementary determining region 3 (L-CDR3)
adenosine production (AMP and ADO concentration in supernatant) [2]: blocks adenosine production
ADO generation (human CLL cells): inhibits ADO generation by human CLL cells
release of TNFα [3]: increases the release of TNFα
ADO production by EVs (inorganic phosphate concentration) [4]: blocks ADO production by EVs derived from malignant ascites
effect on the enzyme activity of soluble CD73 protein (soluble CD73 protein): no or essentially no effect
inhibitory preference, membrane-bound versus soluble form of CD73 [5]: inhibitory preference for enzymatic activity of a membrane-bound form of CD73 protein
release of IFN-γ in the supernatant [6]: increases massive release of IFN-γ

From patent publication US11530273B2, “Anti-CD73 monoclonal antibody, encoding nucleic acids and method for producing” (HELMHOLTZ ZENTRUM MÜNCHEN—DEUTSCHES FORSCHUNGSZENTRUM FÜR …, priority 2017, dated 2022)
